This is an account of results in patent US9360484B2, “Anti-FcRH5 antibodies and immunoconjugates and methods of use” (Genentech, Inc., priority 2009, dated 2016).

For one experiment, the system named is human FcRH1-6. The experiment in a line: FACS cross-reactivity analysis on SVT2 cells stably expressing gD tagged huFcRH1-6. The format is binding. The note with it: 1.0 ug Ab (or 100 μl hybridoma supernatant) per 10^6 SVT2 cells expressing gD tagged huFcRH1-6. The procedure: To determine the cross-reactivity of FcRH5 antibodies, binding of IgG variants to SVT2 cells, expressing human FcRH1-6 were analyzed using FACS analysis.
Briefly, approximately 10^6 cells of SVT2 cells stably expressing gD tagged huFcRH1-6 in 100 μl were incubated with 1.0 ug of murine or chimeric Ab [Mu anti-gD (positive control), Mu anti-FcRH5 (1H4) (“mu1H4”), Mu anti-FcRH5 (4D10) (“mu4D10”), Mu anti-FcRH5 (6H1) (“mu6H1”), Mu anti-FcRH5 (7D11) (“mu7D11”), Ch anti-FcRH5 (7D11) (“ch7D11”), Mu anti-FcRH5 (8116) (“mu8H6”), Mu anti-FcRH5 (9E2) (“mu9E2”), or Mu anti-FcRH5 (13G9) (“mu13G9”)]. Incubation of SVT2 cells stably expressing the empty vector was incubated with the same antibodies and used as a negative control. PE conjugated Rat anti-MuIgG1, Rat anti-MuIgG2a+b, or Mu anti-HuIgG was used as the secondary detection antibody.
To further determine the cross-reactivity of FcRH5 antibodies, binding of IgG variant supernatants to SVT2 cells, expressing human FcRH1-6 were analyzed using FACS analysis.
Briefly, approximately 10^6 cells of SVT2 cells stably expressing gD tagged huFcRH1-6 were incubated with 1.0 μg purified Ms anti-gD antibody or 100 μl (concentration unknown) of murine Ab hybridoma supernatant (Mu anti-FcRH5 (10A8) (“mu10A8”), Mu anti-FcRH5 (10F5) (“mu10F5”)). […]

The next experiment deals with cynomolgus FcRH5. The experiment in a line: Cyno cross-reactivity by FACS on stably transfected cells (SVT2 cells expressing cynoFcRH5). The format is binding, cynomolgus monkey. The settings on record: 1.0, 0.1 or 0.01 μg antibody per million SVT2 cells stably expressing cynoFcRH5. The procedure:
For additional FACS analysis of FcRH5 antibodies, 1.0 μg, 0.1 μg or 0.01 μg of antibody was titrated per million cells of BJAB cells stably expressing huFcRH5 and SVT2 cells stably expressing cynoFcRH5. Briefly, approximately 10^6 cells in 100 μl were incubated with varying amounts (1.0 ug, 01. ug or 0.01 ug) of murine Ab mu1H4, mu6H1, mu7D11, mu9E2, mu10A8, mu10F5, or mu13G9 per million cells of BJAB cells stably expressing huFcRH5 and SVT2 cells stably expressing cynoFcRH5. Incubation with 1.0 ug/10^6 cells of the appropriate Mu IgG isotype control was used as a negative control. PE conjugated Rat anti-MuIgG1 or Rat anti-MuIgG2a+b was used as the secondary detection antibody.

For experiment [1], the system named is OPM2.CMV.PD.FcRH5.5P.2 cells. Nature of the experiment: In vitro cell proliferation assay (CellTiter-Glo Luminescent Cell Viability Assay). The settings on record: OPM2.CMV.PS.FcRH5.5P.2 cells, 3 days incubation. The format is cell-based, human. An excerpt: The homogeneous “add-mix-measure” format results in cell lysis and generation of a luminescent signal proportional to the amount of ATP present. The substrate, Beetle Luciferin, is oxidatively decarboxylated by recombinant firefly luciferase with concomitant conversion of ATP to AMP and generation of photons. Viable cells are reflected in relative luminescence units (RLU). Data can be recorded by luminometer or CCD camera imaging device. […] Alternatively, photons from luminescence can be counted in a scintillation counter in the presence of a scintillant.
3. The plates were equilibrated to room temperature for approximately 30 minutes.
5. The contents were mixed for 2 minutes on an orbital shaker to induce cell lysis.
6. The plate was incubated at room temperature for 10 minutes to stabilize the luminescence signal.

For experiment [2], the target named is T1, human FcRH5 (Homo sapiens, UniProt Q96RD9, G418D/L733P/S890P/V466I/Y267H).
T1 construct: expressed in transfected cells; host or cells: OPM2 multiple myeloma cells
T1 sequence (Q96RD9 16-977 Y267H/G418D/V466I/L733P/S890P): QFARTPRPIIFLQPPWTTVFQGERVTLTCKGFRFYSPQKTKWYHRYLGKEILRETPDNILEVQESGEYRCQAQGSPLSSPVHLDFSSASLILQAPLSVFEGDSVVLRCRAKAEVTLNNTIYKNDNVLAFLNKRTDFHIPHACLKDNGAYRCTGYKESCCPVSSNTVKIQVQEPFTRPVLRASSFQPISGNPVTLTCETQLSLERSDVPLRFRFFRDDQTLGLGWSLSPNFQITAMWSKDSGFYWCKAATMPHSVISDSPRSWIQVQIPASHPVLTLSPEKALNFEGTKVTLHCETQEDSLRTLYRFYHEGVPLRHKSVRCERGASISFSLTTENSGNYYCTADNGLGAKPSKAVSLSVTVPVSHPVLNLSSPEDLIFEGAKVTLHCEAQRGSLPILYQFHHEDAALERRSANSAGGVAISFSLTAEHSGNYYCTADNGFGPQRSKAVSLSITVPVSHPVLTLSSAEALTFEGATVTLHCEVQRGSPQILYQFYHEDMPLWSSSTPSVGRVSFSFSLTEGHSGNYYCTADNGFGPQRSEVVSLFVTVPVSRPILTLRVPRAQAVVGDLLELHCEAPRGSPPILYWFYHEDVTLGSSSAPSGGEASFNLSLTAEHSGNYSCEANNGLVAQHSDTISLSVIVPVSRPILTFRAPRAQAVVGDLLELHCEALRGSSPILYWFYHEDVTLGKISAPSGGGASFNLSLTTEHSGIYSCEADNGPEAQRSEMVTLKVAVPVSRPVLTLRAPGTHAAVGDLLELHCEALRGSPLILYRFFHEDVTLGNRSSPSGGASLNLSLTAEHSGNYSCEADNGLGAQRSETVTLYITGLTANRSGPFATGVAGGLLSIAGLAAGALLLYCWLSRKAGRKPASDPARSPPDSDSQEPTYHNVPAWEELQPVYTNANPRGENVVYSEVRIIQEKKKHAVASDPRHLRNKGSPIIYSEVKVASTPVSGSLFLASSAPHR
Nature of the experiment: Affinity determination (Scatchard analysis) on cells expressing human FcRH5. The class given is binding. The settings on record: by FACS and Scatchard analysis. Here is the method:
To further determine binding of the FcRH5 murine antibodies and IgG clones, binding of iodinated IgG variants to OPM2 cells expressing human FcRH5 and SVT2 cells expressing cynomologous FcRH5, Scatchard analysis was performed.
After a four hour incubation at 4° C., cells were washed and cell pellet counts were read by a gamma counter (1470 WIZARD Automatic Gamma Counter; Perkin Elmer, Walthem, Mass.). All points were done in triplicate and counted for 10 minutes. The average CPM was used for Kd calculation using the New Ligand (Genentech, South San Francisco, Calif.) program.

Experiment [3] addresses T2, human FcRH5 (Homo sapiens, UniProt Q96RD9).
T2 construct: vectors that expresses the His-tagged extra-cellular domain (ECDs) of the FcRH5/IRTA2 into CHO cells; His tag (HIS6); made in house; host or cells: CHO cells (transient transfection)
T2 sequence (Q96RD9 16-851 limits assumed): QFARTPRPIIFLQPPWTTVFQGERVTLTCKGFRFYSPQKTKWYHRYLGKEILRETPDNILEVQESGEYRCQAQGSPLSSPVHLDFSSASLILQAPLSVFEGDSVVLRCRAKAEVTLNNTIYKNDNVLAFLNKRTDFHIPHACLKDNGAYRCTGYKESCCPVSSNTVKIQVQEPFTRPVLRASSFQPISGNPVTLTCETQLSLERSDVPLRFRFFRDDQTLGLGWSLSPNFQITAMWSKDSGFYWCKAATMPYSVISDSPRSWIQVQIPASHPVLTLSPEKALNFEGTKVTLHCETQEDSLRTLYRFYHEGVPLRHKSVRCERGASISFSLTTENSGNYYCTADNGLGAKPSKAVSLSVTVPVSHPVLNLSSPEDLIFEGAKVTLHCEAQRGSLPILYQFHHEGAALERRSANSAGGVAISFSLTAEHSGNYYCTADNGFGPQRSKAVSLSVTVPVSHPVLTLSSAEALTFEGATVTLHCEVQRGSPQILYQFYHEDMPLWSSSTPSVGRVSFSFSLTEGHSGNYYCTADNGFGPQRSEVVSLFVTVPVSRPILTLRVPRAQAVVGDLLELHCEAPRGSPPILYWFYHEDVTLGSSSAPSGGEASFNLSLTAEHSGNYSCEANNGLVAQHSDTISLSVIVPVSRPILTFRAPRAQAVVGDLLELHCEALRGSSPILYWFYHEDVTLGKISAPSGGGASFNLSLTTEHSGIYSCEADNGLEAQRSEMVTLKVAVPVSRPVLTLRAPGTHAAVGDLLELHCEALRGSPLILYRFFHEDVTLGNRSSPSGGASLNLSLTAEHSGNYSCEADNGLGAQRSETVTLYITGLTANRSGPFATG
Nature of the experiment: Affinity determination (Biacore analysis) of murine anti-FcRH5 IgGs. The settings on record: murine IgG captured on chip, 25° C., 1:1 Langmuir binding model; read-out: Affinity (Biacore) to Hu antigen. Here is the method:
The FcRH-binding affinities of IgGs were calculated from association and dissociation rate constants measured using a Biacore 2000 surface plasmon resonance system (BIAcore, Inc.). A biosensor chip was activated for covalent coupling of either anti-murine IgG (BR-1008-338) using N-ethyl-N′-(3-dimethyaminopropyl)-carbodiimide hydrochloride (EDC) and N-hydroxysuccinimide (NHS) according to the supplier's instruction (BIAcore, Inc.). Briefly, for each cycle of kinetic analysis, 5 ul of 100 nM IgG was captured on the chip, two-fold serial dilution of various FcRHs were injected at a flow rate of 20 ul/min for 150 sec. Antigen dissociation was monitored for 180 sec before regeneration. Equilibrium dissociation constants at 25° C. were calculated by fitting the data with a 1:1 Langmuir binding model. Running buffer was PBS with 0.05% Tween −20. All the antibodies bound antigen with sufficient affinity to be used as a therapeutic.
On the technique in general: SPR reads the build-up and loss of mass on a sensor chip optically.

cynomolgus FcRH5, sequence (as listed by the source): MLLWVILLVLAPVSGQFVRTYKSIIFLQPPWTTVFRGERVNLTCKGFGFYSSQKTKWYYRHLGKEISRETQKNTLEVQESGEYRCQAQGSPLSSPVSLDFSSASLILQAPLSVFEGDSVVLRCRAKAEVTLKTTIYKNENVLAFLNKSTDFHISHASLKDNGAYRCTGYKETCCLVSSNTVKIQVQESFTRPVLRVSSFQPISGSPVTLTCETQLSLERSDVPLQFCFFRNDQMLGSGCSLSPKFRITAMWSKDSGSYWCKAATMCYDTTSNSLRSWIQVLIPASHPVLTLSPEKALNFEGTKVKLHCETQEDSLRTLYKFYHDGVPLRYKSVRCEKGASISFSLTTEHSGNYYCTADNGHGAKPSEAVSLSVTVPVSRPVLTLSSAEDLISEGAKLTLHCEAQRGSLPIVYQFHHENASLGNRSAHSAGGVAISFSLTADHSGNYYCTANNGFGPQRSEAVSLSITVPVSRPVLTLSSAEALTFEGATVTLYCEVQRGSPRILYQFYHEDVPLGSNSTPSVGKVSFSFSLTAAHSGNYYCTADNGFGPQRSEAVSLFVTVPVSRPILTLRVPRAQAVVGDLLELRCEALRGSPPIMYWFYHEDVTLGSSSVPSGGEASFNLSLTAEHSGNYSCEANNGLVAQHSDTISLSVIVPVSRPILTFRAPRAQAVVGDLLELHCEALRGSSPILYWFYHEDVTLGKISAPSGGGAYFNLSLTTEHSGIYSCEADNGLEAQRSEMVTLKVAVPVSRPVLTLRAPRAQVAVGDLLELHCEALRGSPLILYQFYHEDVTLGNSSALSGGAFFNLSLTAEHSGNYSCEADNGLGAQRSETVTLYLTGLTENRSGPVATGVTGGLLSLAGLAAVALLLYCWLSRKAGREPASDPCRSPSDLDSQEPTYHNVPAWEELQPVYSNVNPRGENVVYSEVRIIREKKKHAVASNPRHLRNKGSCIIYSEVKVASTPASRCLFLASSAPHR

B1: 10A8: murine anti-FcRH5 monoclonal antibody, light chain variable domain SEQ ID NO: 18, heavy chain variable domain SEQ ID NO: 20 (antibody, listed as Mus musculus, V domains shown)
VH: EVQLVESGGGLVKPGGSLKISCAASGFTFSSYAVSWVRQTPEKRLEWVATISSGGSLTFYLDSVRGRFTISRDNAKNTLYLQMSSLRSEDTAMYYCARPIPDYYALDYWGQGTSVTVSS
VL: DIVMTQSHKFMSTSVRDRVSITCKASQDVSTAVAWYQQKPGQSPKLLIYSASYRYTGVPDRFTGSGSGTDFTFTISSVQAEDLAVYYCQQHFSSPRTFGGGTKVEIKR
modifications: Variable Domain of Heavy Chain of Humanized Antibody (mu10A8)
For the molecule B1, the “specificity of binding among huFcRH1-6 by FACS” value in the experiment with human FcRH1-6 was “specifically bind FcRH5”. For the same molecule, the “cross reaction with cynomolgus FcRH5 by FACS analysis” value in the experiment with cynomolgus FcRH5 is “cross react with cynomolgus FcRH5”.

B2: hu10A8 v1: humanized 10A8 antibody, variable domains SEQ ID NO: 19 and SEQ ID NO: 21 (antibody, V domains shown)
VH: EVQLVESGGGLVQPGGSLRLSCAASGFTFSSYAVSWVRQAPGKGLEWVATISSGGSLTFYLDSVRGRFTISRDNSKNTLYLQMNSLRAEDTAVYYCARPIPDYYALDYWGQGTLVTVSS
VL: DIQMTQSPSSLSASVGDRVTITCKASQDVSTAVAWYQQKPGKAPKLLIYSASYRYTGVPSRFSGSGSGTDFTLTISSLQPEDFATYYCQQHFSSPRTFGQGTKVEIKR
For B2, the “in vitro cell growth inhibition (in words)” value in experiment [1] is “no in vitro cell growth inhibition”. The “relative binding affinity of humanized version 1 and the chimera” value with human FcRH5 [2] is given as “equivalent to the chimera”.

B3: 13G9: murine monoclonal antibody binding human FcRH5 (antibody, V domains shown)
VH: EVQLVQSGPELKKPGETVKISCKASGYTFTNYGMNWVKQAPGKGLKWMGWVNTYTGEPTYTDDFKGRFAFSVETSASTVFLQINNLKNEDTATYFCARRSIPYYYAMDYWGQGTSLT
VL: DIVMTQSQKIMSTSVGDRVNVTCKASQNVGSNVAWYHQKPGQSPKALIYSASYRYSGVPDRFTGSGSGTDFTLTISNVQSEDLAEYFCQQYKTWTFGGGTKLEIKR
On to B3, for which the Kd in the experiment with human FcRH5 [3] was 19 nM. The “cross reaction with cynomolgus FcRH5 by FACS analysis” value in the experiment on cynomolgus FcRH5 is given as “cross react with cynomolgus FcRH5”.
